{
  "source": "paper PMC10484793",
  "key": {"C17orf80 [1]": {"biological_target": "T1, C17orf80 (Homo sapiens, UniProt Q9BSJ5 1-609)", "T1 sequence (Q9BSJ5 whole entry)": "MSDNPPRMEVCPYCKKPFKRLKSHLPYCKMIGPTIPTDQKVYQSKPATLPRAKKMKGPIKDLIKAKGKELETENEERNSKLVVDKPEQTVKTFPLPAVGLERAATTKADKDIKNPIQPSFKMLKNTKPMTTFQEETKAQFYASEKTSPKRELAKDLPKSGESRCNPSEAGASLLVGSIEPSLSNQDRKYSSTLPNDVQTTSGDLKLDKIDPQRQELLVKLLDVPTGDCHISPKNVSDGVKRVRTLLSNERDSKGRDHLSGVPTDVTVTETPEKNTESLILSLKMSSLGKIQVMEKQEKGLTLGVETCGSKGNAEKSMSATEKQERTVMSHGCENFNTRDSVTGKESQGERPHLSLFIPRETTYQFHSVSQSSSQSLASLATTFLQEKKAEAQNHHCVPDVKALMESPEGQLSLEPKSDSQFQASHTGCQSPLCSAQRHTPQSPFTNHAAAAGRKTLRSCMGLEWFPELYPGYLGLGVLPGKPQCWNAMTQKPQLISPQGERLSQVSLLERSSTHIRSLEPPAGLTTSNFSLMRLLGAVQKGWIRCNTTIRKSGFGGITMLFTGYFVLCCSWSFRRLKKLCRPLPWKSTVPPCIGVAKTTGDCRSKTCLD", "assay": "EMSA"}, "C17orf80 [2]": {"biological_target": "T1, C17orf80", "assay": "EMSA", "remark": "listed apart in the source"}},
  "data": [
    {"binder": "mito dsDNA (dsDNA) DNA 1: TACTCCTCAATTACCCACATAGGATGAATAATAGCAGTTCTACCGTACAA DNA 2: TTGTACGGTAGAACTGCTATTATTCATCCTATGTGGGTAATTGAGGAGTA", "values": [
      {"measurement": "Kd", "setting": "C17orf80 [1]", "value": "46 ± 7", "unit": "nM"}
    ]},
    {"binder": "nuc dsDNA (dsDNA) DNA 1: TTTATTTCTGAGACGGGGTCTTGTGTTGCCCAGGCTGGAGTGTAATGGCA DNA 2: TGCCATTACACTCCAGCCTGGGCAACACAAGACCCCGTCTCAGAAATAAA", "values": [
      {"measurement": "Kd", "setting": "C17orf80 [1]", "value": "49 ± 3", "unit": "nM"}
    ]},
    {"binder": "TACTCCTCAATTACCCACATAGGATGAATAATAGCAGTTCTACCGTACAA (ssDNA)", "note": "[mito ssDNA]", "values": [
      {"measurement": "binding result", "setting": "C17orf80 [2]", "value": "no binding"}
    ]}
  ]
}
